Values quoted from earlier work as cited in publication PMC5722893.

How the values were obtained:
TSLPR (Homo sapiens) = TSLPR (Homo sapiens) (UniProt Q9HC73)
[1] = molecular target: TSLP:TSLPR complex (Homo sapiens) (UniProt Q969D9)

Chain of UniProt Q9HC73 (Q9HC73 23-231): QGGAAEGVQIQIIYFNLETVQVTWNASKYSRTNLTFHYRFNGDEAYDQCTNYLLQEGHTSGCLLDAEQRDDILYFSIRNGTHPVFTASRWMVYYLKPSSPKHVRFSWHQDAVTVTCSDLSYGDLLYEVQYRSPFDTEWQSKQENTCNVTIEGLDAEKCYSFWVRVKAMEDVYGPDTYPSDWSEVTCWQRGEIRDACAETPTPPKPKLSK

Kd (TSLPR (Homo sapiens)) [nM] | Kd [1] [nM] | Substance
32 |  | TSLP (from UniProt Q969D9)
 | 29 | IL-7Ralpha (from UniProt P16871)
